Results from the supplement of paper PMC10567573.

B1: ESR2 (parent)
chain: KSCQACRLRKCYEVGMVKCGSRRE
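Note: lentivirally expressed fusions sorted by FACS into six bins by GFP to DsRed ratio, PSI derived from sequencing read proportions per bin multiplied by bin number.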

Variants of: B1
Test: protein stability index of a GFP-peptide fusion (GPS, HEK-293T) (PSI 1-6); higher = more stable
Conditions: c terminus: a fixed tail appended
KSCQACRLRKCYEVGGVKCGSRRE showed a protein stability index of 2. KSCQACRLRKCYEVGQVKCGSRRE showed a protein stability index of 1.95. Variant KSCQACRLRKCYEVGHVKCGSRRE has a protein stability index of 2.82. With KSCQACRLRKCYEVGNVKCGSRRE the protein stability index was 2.15. KSCQACRLRKCYEVGWVKCGSRRE showed a protein stability index of 1.88. For KSCQACRLRKCYEVGSVKCGSRRE, the protein stability index was 2.44. In the case of KSCQACRLRKCYEVGDVKCGSRRE, the protein stability index is reported as 1.66. For KSCQACRLRKCYEVGLVKCGSRRE, the protein stability index was 2.22. KSCQACRLRKCYEVGCVKCGSRRE gave a protein stability index of 3.01. For KSCQACRLRKCYEVGTVKCGSRRE, the protein stability index was 2.14. KSCQACRLRKCYEVGEVKCGSRRE showed a protein stability index of 1.84. In the case of KSCQACRLRKCYEVGAVKCGSRRE, the protein stability index is reported as 1.76. In the case of KSCQACRLRKCYEVGVVKCGSRRE, the protein stability index is reported as 1.74. KSCQACRLRKCYEVGYVKCGSRRE showed a protein stability index of 1.85. KSCQACRLRKCYEVGRVKCGSRRE showed a protein stability index of 2.4. For KSCQACRLRKCYEVGPVKCGSRRE, the protein stability index was 1.96. For KSCQACRLRKCYEVGIVKCGSRRE, the protein stability index was 1.13. KSCQACRLRKCYEVGKVKCGSRRE gave a protein stability index of 2.67. In the case of KSCQACRLRGCYEVGMVKCGSRRE, the protein stability index is reported as 1.78. KSCQACRLRYCYEVGMVKCGSRRE showed a protein stability index of 1.79. Variant KSCQACRLRACYEVGMVKCGSRRE has a protein stability index of 1.81. In the case of KSCQACRLRTCYEVGMVKCGSRRE, the protein stability index is reported as 2.23. For KSCQACRLRFCYEVGMVKCGSRRE, the protein stability index was 1.26. With KSCQACRLRHCYEVGMVKCGSRRE the protein stability index was 2.16. With KSCQACRLRECYEVGMVKCGSRRE the protein stability index was 2.12. For KSCQACRLRLCYEVGMVKCGSRRE, the protein stability index was 2.24. Work on KSCQACRLRQCYEVGMVKCGSRRE yielded a protein stability index of 1.68. KSCQACRLRDCYEVGMVKCGSRRE showed a protein stability index of 1.49. Variant KSCQACRLRRCYEVGMVKCGSRRE has a protein stability index of 1.56. Variant KSCQACRLRSCYEVGMVKCGSRRE has a protein stability index of 2.69. Work on KSCQACRLRICYEVGMVKCGSRRE yielded a protein stability index of 1.98. KSCQACRLRWCYEVGMVKCGSRRE showed a protein stability index of 1.74. With KSCQACRLRNCYEVGMVKCGSRRE the protein stability index was 2.27. Work on KSCQACRLRPCYEVGMVKCGSRRE yielded a protein stability index of 1.94. Variant KSCQACRLRVCYEVGMVKCGSRRE has a protein stability index of 1.89. For KSCQACRLRMCYEVGMVKCGSRRE, the protein stability index was 1.48. For KSCQACRLRCCYEVGMVKCGSRRE, the protein stability index was 1.5. Variant KSCQACRLRKCYEWGMVKCGSRRE has a protein stability index of 1.92. With KSCQACRLRKCYESGMVKCGSRRE the protein stability index was 2.52. KSCQACRLRKCYELGMVKCGSRRE showed a protein stability index of 1.49. KSCQACRLRKCYEYGMVKCGSRRE gave a protein stability index of 1.7. Work on KSCQACRLRKCYEFGMVKCGSRRE yielded a protein stability index of 1.57. For KSCQACRLRKCYEDGMVKCGSRRE, the protein stability index was 2.17. For KSCQACRLRKCYEMGMVKCGSRRE, the protein stability index was 1.77. KSCQACRLRKCYENGMVKCGSRRE showed a protein stability index of 2.34. KSCQACRLRKCYEAGMVKCGSRRE showed a protein stability index of 2.1. For KSCQACRLRKCYEPGMVKCGSRRE, the protein stability index was 1.62. KSCQACRLRKCYECGMVKCGSRRE gave a protein stability index of 2.17. Work on KSCQACRLRKCYETGMVKCGSRRE yielded a protein stability index of 1.96. KSCQACRLRKCYEQGMVKCGSRRE gave a protein stability index of 2.17. Variant KSCQACRLRKCYERGMVKCGSRRE has a protein stability index of 2.27. KSCQACRLRKCYEGGMVKCGSRRE gave a protein stability index of 1.94. KSCQACRLRKCYEHGMVKCGSRRE showed a protein stability index of 4.01. With KSCQACRLRKCYEKGMVKCGSRRE the protein stability index was 2.5. For KSCQACRLRKCYEIGMVKCGSRRE, the protein stability index was 1.67. Work on KSCQACRLRKCYEEGMVKCGSRRE yielded a protein stability index of 1.9. In the case of KSCQACRLCKCYEVGMVKCGSRRE, the protein stability index is reported as 1.61. In the case of KSCQACRLGKCYEVGMVKCGSRRE, the protein stability index is reported as 1.95. KSCQACRLKKCYEVGMVKCGSRRE gave a protein stability index of 2.04. In the case of KSCQACRLLKCYEVGMVKCGSRRE, the protein stability index is reported as 2.14. Work on KSCQACRLVKCYEVGMVKCGSRRE yielded a protein stability index of 2.13. With KSCQACRLYKCYEVGMVKCGSRRE the protein stability index was 2.38. In the case of KSCQACRLHKCYEVGMVKCGSRRE, the protein stability index is reported as 1.92. With KSCQACRLWKCYEVGMVKCGSRRE the protein stability index was 1.93. Work on KSCQACRLNKCYEVGMVKCGSRRE yielded a protein stability index of 1.88. In the case of KSCQACRLMKCYEVGMVKCGSRRE, the protein stability index is reported as 1.93. KSCQACRLIKCYEVGMVKCGSRRE showed a protein stability index of 1.82. Work on KSCQACRLQKCYEVGMVKCGSRRE yielded a protein stability index of 1.99. With KSCQACRLFKCYEVGMVKCGSRRE the protein stability index was 2.56. Work on KSCQACRLPKCYEVGMVKCGSRRE yielded a protein stability index of 2.35. In the case of KSCQACRLDKCYEVGMVKCGSRRE, the protein stability index is reported as 1.75. KSCQACRLTKCYEVGMVKCGSRRE showed a protein stability index of 2.66. In the case of KSCQACRLAKCYEVGMVKCGSRRE, the protein stability index is reported as 1.1. For KSCQACRLSKCYEVGMVKCGSRRE, the protein stability index was 1.8. Variant KSCQACRLEKCYEVGMVKCGSRRE has a protein stability index of 2.03. Work on KSCQACRLRKCYWVGMVKCGSRRE yielded a protein stability index of 1.49. KSCQACRLRKCYSVGMVKCGSRRE showed a protein stability index of 2.42. For KSCQACRLRKCYYVGMVKCGSRRE, the protein stability index was 1.38. Variant KSCQACRLRKCYVVGMVKCGSRRE has a protein stability index of 1.6. KSCQACRLRKCYTVGMVKCGSRRE gave a protein stability index of 1.96. Work on KSCQACRLRKCYGVGMVKCGSRRE yielded a protein stability index of 2.3. In the case of KSCQACRLRKCYHVGMVKCGSRRE, the protein stability index is reported as 2.89. KSCQACRLRKCYAVGMVKCGSRRE gave a protein stability index of 1.93. Variant KSCQACRLRKCYIVGMVKCGSRRE has a protein stability index of 2.03. With KSCQACRLRKCYDVGMVKCGSRRE the protein stability index was 1.88. In the case of KSCQACRLRKCYMVGMVKCGSRRE, the protein stability index is reported as 1.7. With KSCQACRLRKCYCVGMVKCGSRRE the protein stability index was 2.46. Work on KSCQACRLRKCYRVGMVKCGSRRE yielded a protein stability index of 1.95. KSCQACRLRKCYFVGMVKCGSRRE showed a protein stability index of 2.23. Work on KSCQACRLRKCYQVGMVKCGSRRE yielded a protein stability index of 1.7. Variant KSCQACRLRKCYNVGMVKCGSRRE has a protein stability index of 1.93. KSCQACRLRKCYKVGMVKCGSRRE showed a protein stability index of 1.99. KSCQACRLRKCYLVGMVKCGSRRE gave a protein stability index of 1.64. KSCQACRLRKCYPVGMVKCGSRRE showed a protein stability index of 1.69.
